Assay [1] has as its target ADM (human or mouse, not stated for this row). The assay is described as follows: cell-based or functional assay.
Assay [2] has as its target human recombinant adrenomedullin receptor (CRLR+RAMP3) (human).

In assay [1], Non specific mouse IgG (antibody) registered a Maximal inhibition of ADM bioactivity (ADM-Bioassay) (%) of 0%.

Consider “human adrenomedullin (hADM 1-52) (peptide)”, for which the concentration giving a half-maximal response (EC50 (read off the curve)) – broadly, the concentration giving half of the maximal effect – in assay [2] worked out at 1 nM.
